Test results published in patent publication US20050043231A1, “Therapy for growth hormone induced insulin resistance in juveniles with growth disorders” (priority 2001, published 2005).

Key:
[1] = Insulin sensitivity by Bergman's minimal model (frequently sampled iv glucose tolerance test with tolbutamide) in short SGA children on rhGH therapy; format: in vivo, human
Description: All subjects were born SGA, had marked short stature (height approximately—3 standard deviation score (SDS)) with a height velocity<25th percentile for >1 year prior to starting rhGH therapy. SGA was defined as a birth weight<10th percentile for gestational age. Additional enrolment criteria for inclusion into the study included; no change in Tanner pubertal stage and/or testicular volumes throughout the study period, normal GH response to clonidine stimulation (defined as a GH level≧7 μgm/L), absence of both islet cell antibodies (<10 Juvenile Diabetes Foundation units) and insulin autoantibodies to exclude type 1 prediabetes. Prepubertal subjects were defined as males with a testicular volume<4 ml and girls with tanner stage 1 breast development. Subjects were excluded if; a chromosomal, intrauterine infection or syndromal cause for SGA was identified, a first degree relative had type 2 diabetes mellitus, or medical therapy was taken that was known to influence SI. Subjects were recruited from the Endocrinology Clinics at Starship Children's Hospital. Birth weight and length were converted into SDSs to correct for age and sex. Body mass index (BMI) was used as a measure of relative obesity and expressed as BMI SDS.
Insulin sensitivity (SI) was measured in 11 subjects prior to and 12 subjects during rhGH treatment. In addition five prepubertal subjects agreed to have rhGH therapy suspended for three months with reassessment of SI. Bergman's minimal model was used to measure SI, acute insulin response (AIR) and glucose effectiveness (Sg). The data was provided from a 90 min frequently sampled iv glucose tolerance test with tolbutamide, which had been modified and validated for use in children as previously described (Cutfield et al. 1990). SI is a measure of insulin mediated glucose uptake, AIR a measure of insulin secretory capacity and Sg is a measure of glucose stimulated glucose uptake independent of insulin. These three indices are characteristic measurements useful for determining glycemic states. Plasma glucose and insulin was measured from all samples and the values used for measurement of SI, AIR and Sg. Approval for the study was provided by the North Health Ethics Committee and signed, informed consent was obtained from subjects and their parents.
Plasma glucose concentration was measured using a Hitachi 911 automated random access analyser (Tokyo, Japan) with an interassay coefficient variation of 1.2% (Trinder P. Determination of blood glucose using an oxidase-peroxidase system with a non-carcinogenic chromogen. J Clin Pathol […]; 22: 158-61). Insulin was determined by Abbotts IMX microparticle enzyme immunoassay with an interassay coefficient of variation of <5%. Plasma IGF-I was measured using an established IGF binding protein blocked radioimmunoassay (Blum et al. Radioimmunoassays for insulin-like growth factors and their binding proteins. Growth Reg. 1994; 4: (Suppl.) 11-19). The IGF-I detection limit was 1.3 ng/ml with intra-assay and inter-assay coefficients of variation of 5.0% and 9.2%, respectively. Plasma IGF-II samples were intially treated with acid-ethanol cryoprecipitation to remove IGF II from binding proteins. IGF II was then measured by RIA using a highly specific polyclonal antiserum (Blum et al. A specific radioimmunoassay for insulin-like growth factor II. The interference of IGF binding proteins can be blocked by excess IGF-I. Acta Endcrinol (Copenh) 1988; 129:427-435). […]

[2] = Fasting serum IGF-I, IGF-II and leptin and BMI SDS in short SGA children on rhGH therapy; format: in vivo, human
Description: All subjects were born SGA, had marked short stature (height approximately—3 standard deviation score (SDS)) with a height velocity<25th percentile for >1 year prior to starting rhGH therapy. SGA was defined as a birth weight<10th percentile for gestational age. Additional enrolment criteria for inclusion into the study included; no change in Tanner pubertal stage and/or testicular volumes throughout the study period, normal GH response to clonidine stimulation (defined as a GH level≧7 μgm/L), absence of both islet cell antibodies (<10 Juvenile Diabetes Foundation units) and insulin autoantibodies to exclude type 1 prediabetes. […] Body mass index (BMI) was used as a measure of relative obesity and expressed as BMI SDS.
Plasma glucose concentration was measured using a Hitachi 911 automated random access analyser (Tokyo, Japan) with an interassay coefficient variation of 1.2% (Trinder P. Determination of blood glucose using an oxidase-peroxidase system with a non-carcinogenic chromogen. J Clin Pathol 1995; 22: 158-61). Insulin was determined by Abbotts IMX microparticle enzyme immunoassay with an interassay coefficient of variation of <5%. Plasma IGF-I was measured using an established IGF binding protein blocked radioimmunoassay (Blum et al. Radioimmunoassays for insulin-like growth factors and their binding proteins. Growth Reg. 1994; 4: (Suppl.) 11-19). […]

[3] = Fasting plasma insulin, glucose, IGF-I and FFA in IUGR rats treated for 28 days; format: in vivo, rat
Procedure: (§1) Studies of insulin resistance in vivo in rats were carried out in animals in which insulin resistance was produced by fetal undernutrition (“IUGR”) as described previously (Woodall et al. 1996). Virgin Wistar rats (age 100±5 days) were time mated using a rat estrus cycle monitor to assess the stage of estrus of the animals prior to introducing the male. After confirmation of mating, rats were housed individually in standard rat cages containing wood shavings as bedding and free access to water. All rats were kept in the same room with a constant temperature maintained at 25° C. and a 12-h light: 12-h darkness cycle. Animals received an undernutrition diet throughout pregnancy that was 30% of an ad libitum (“AD”) diet. Food intake and maternal weights were recorded daily until birth. A total of 40 male pups were recruited for the study. After birth, pups were weighed and litter size recorded. Litter size was then adjusted to eight pups to ensure standardised nutrition. Male pups from undernourished mothers were cross-fostered onto dams which received AD feeding throughout pregnancy to ensure post-natal viability. After weaning all male offspring were fed a hypercaloric diet ad libitum for the remainder of the study (total digestible energy 4846 kcal/kg, protein 31.8%, fat 30%, fat/energy ratio 55.72%, protein/energy ratio 26.25%). The fat content of the hypercaloric diet was chosen to be typical of many Western diets known to be associated with abnormalities in glucose metabolism in humans.
At 25 days of age, three days after weaning, study animals were enrolled into treatment groups for 28 days. The study groups were weight matched. The 40 study males were divided into four treatment groups, each of 10 animals; (a) no treatment (control group), (b) troglitazone and metformin, (c) recombinant bovine GH (GH) and (d) GH, troglitazone and metformin. […]
(§2) Troglitazone was added to food at approximately 100 mg/kg/day based on daily food consumption. Metformin was mixed with drinking water and the dose calculated to 500 mg/kg/day based on daily water consumption. […] Body weight and food intake of all offspring were measured daily for the first 2 weeks then every second day until study completion. […]
At day 53, systolic blood pressure measurements were recorded using tail cuff plethysmography (Blood pressure analyser IITC, Life Science, Woodland Hills, Calif., USA) as described previously (Vickers et al. 2000). […] Pulses in pressure were recorded during deflation at a rate of 3 mmHg/sec and the reappearance of a pulse was used to determine systolic blood pressure. […]
IGF-I in rat blood plasma was measured using an IGF binding protein (IGFBP)-blocked rat RIA described previously (Blum et al. 1994). […] Rat insulin was measured by an in-house radioimmunoassay (Vickers et al. 2000, Lewis et al. 1999). […]

[4] = Tail cuff systolic blood pressure in IUGR rats; format: in vivo, rat; conditions: day 53, tail cuff, vs no treatment group and GH treated group
Procedure: Studies of insulin resistance in vivo in rats were carried out in animals in which insulin resistance was produced by fetal undernutrition (“IUGR”) as described previously (Woodall et al. 1996). Virgin Wistar rats (age 100±5 days) were time mated using a rat estrus cycle monitor to assess the stage of estrus of the animals prior to introducing the male. After confirmation of mating, rats were housed individually in standard rat cages containing wood shavings as bedding and free access to water. All rats were kept in the same room with a constant temperature maintained at 25° C. and a 12-h light: 12-h darkness cycle. Animals received an undernutrition diet throughout pregnancy that was 30% of an ad libitum (“AD”) diet. Food intake and maternal weights were recorded daily until birth. […] After birth, pups were weighed and litter size recorded. […]
as §2
At day 53, systolic blood pressure measurements were recorded using tail cuff plethysmography (Blood pressure analyser IITC, Life Science, Woodland Hills, Calif., USA) as described previously (Vickers et al. 2000). […]

[5] = Growth and body composition in IUGR rats; format: in vivo, rat
Procedure: as §1
At 25 days of age, three days after weaning, study animals were enrolled into treatment groups for 28 days. The study groups were weight matched. […]
as §2
Statistical comparisons were carried out using the statistical package SAS (version 8) for personal computers. […] For analysis of growth and body composition data (BMI and % retroperitoneal fat), each of the four treatment groups were analysed as separate treatments and then Dunnetts test was used to compare the three active treatments with the control group. Data are expressed as mean±SEM, with p<0.05.
Body composition was examined in several different ways; body mass index (BMI), retroperitoneal fat expressed as a percentage of body weight (retroperitoneal fat %) and gonadal fat expressed as a percentage of body weight (gonadal fat %). […]

Molecule	compensatory rise in AIR (acute insulin response) ([1]; during rhGH therapy, p<0.009)	recovery of SI after rhGH suspended ([1]; five prepubertal subjects, three months after rhGH therapy was suspended)	fall in SI during rhGH therapy, prepubertal children ([1]; prepubertal subjects)	fall in SI during rhGH therapy, pubertal subjects ([1]; pubertal subjects)	fall in SI (insulin sensitivity) during rhGH therapy ([1]; short SGA children, all subjects, 21±6 months of rhGH, p=0.018)	adverse event: type 2 diabetes mellitus ([2]; one subject, 12 months after cessation of 4.1 years of rhGH therapy)	fasting serum IGF-I level ([2]; with rhGH therapy, 127±37 pretreatment, p<0.001)	fasting insulin levels ([3]; 28 days of treatment, GH vs no treatment p<0.0001, GH plus sensitisers vs GH alone p=0.01)	plasma free fatty acids (FFA) ([3]; fasting)	plasma glucose ([3]; fasting, no treatment group 7.8±0.3, p<0.0001)	fasting IGF-I levels ([3]; p<0.0001)	systolic BP [4]	nose to anus length ([5]; IUGR rats at study end, no treatment group 179±2)	gonadal fat % (percentage of body weight) ([5]; IUGR rats, across the four groups)	retroperitoneal fat % (percentage of body weight) ([5]; IUGR rats, no treatment group 0.97±0.06%)	BMI ([5]; IUGR rats, no treatment group 6.8±0.2)
rhGH: recombinant human growth hormone given to short SGA children	123±59%	no recovery in SI	48%	35%	44±10%	developed type 2 diabetes mellitus	189±46 μgm/l	–	–	–	–	–	–	–	–	–
GH: recombinant bovine GH, subcutaneously 10 μgm/gm/day in two divided doses in IUGR rats (protein, UniProt P01246 27-217, looked up) Somatotropin: AFPAMSLSGLFANAVLRAQHLHQLAADTFKEFERTYIPEGQRYSIQNTQVAFCFSETIPAPTGKNEAQQKSDLELLRISLLLIQSWLGPLQFLSRVFTNSLVFGTSDRVYEKLKDLEEGILALMRELEDGTPRAGQILKQTYDKFDTNMRSDDALLKNYGLLSCFRKDLHKTETYLRVMKCRRFGEASCAF	–	–	–	–	–	–	–	substantially and significantly increased	fall observed in plasma FFA	11.9 ± 0.9 mmol/L	higher	trend of increasing systolic BP	188±1 mm	increase in gonadal fat %	0.69±0.05%	6.9±0.1
